The record followed here is PMC11398526 (bioRxiv, 2024).

First the molecules themselves.
B1: steroid receptor coactivator 3 (SRC3), full-length, Strep II tagged (natural protein)
chain: not shown
B3: progesterone receptor isoform A (PR-A), full-length, Strep II tagged (natural protein)
chain: MSRSGCKVGDSSGTAAAHKVLPRGLSPARQLLLPASESPHWSGAPVKPSPQAAAVEVEEEDGSESEESAGPLLKGKPRALGGAAAGGGAAAVPPGAAAGGVALVPKEDSRFSAPRVALVEQDAPMAPGRSPLATTVMDFIHVPILPLNHALLAARTRQLLEDESYDGGAGAASAFAPPRSSPCASSTPVAVGDFPDCAYPPDAEPKDDAYPLYSDFQPPALKIKEEEEGAEASARSPRSYLVAGANPAAFPDFPLGPPPPLPPRATPSRPGEAAVTAAPASASVSSASSSGSTLECILYKAEGAPPQQGPFAPPPCKAPGASGCLLPRDGLPSTSASAAAAGAAPALYPALGLNGLPQLGYQAAVLKEGLPQVYPPYLNYLRPDSEASQSPQYSFESLPQKICLICGDEASGCHYGVLTCGSCKVFFKRAMEGQHNYLCAGRNDCIVDKIRRKNCPACRLRKCCQAGMVLGGRKFKKFNKVRVVRALDAVALPQPVGVPNESQALSQRFTFSPGQDIQLIPPLINLLMSIEPDVIYAGHDNTKPDTSSSLLTSLNQLGERQLLSVVKWSKSLPGFRNLHIDDQITLIQYSWMSLMVFGLGWRSYKHVSGQMLYFAPDLILNEQRMKESSFYSLCLTMWQIPQEFVKLQVSQEEFLCMKVLLLLNTIPLEGLRSQTQFEEMRSSYIRELIKAIGLRQKGVVSSSQRFYQLTKLLDNLHDLVKQLHLYCLNTFIQSRALSVEFPEMMSEVIAAQLPKILAGMVKPLLFHKK

The target in assay [1] is T1, histone acetyltransferase p300, full-length, Strep II tagged (human, UniProt Q09472 1-2414). Kind of assay: HDX-MS.
The target of assay [2] is B3. Kind of assay: SEC-MALS.
Assay [3] has as its target B1. In words: HDX-MS.
For assay [4], the target named is T1, histone acetyltransferase p300, …. Kind of assay: cross-linking.

T1 sequence (Q09472 whole entry): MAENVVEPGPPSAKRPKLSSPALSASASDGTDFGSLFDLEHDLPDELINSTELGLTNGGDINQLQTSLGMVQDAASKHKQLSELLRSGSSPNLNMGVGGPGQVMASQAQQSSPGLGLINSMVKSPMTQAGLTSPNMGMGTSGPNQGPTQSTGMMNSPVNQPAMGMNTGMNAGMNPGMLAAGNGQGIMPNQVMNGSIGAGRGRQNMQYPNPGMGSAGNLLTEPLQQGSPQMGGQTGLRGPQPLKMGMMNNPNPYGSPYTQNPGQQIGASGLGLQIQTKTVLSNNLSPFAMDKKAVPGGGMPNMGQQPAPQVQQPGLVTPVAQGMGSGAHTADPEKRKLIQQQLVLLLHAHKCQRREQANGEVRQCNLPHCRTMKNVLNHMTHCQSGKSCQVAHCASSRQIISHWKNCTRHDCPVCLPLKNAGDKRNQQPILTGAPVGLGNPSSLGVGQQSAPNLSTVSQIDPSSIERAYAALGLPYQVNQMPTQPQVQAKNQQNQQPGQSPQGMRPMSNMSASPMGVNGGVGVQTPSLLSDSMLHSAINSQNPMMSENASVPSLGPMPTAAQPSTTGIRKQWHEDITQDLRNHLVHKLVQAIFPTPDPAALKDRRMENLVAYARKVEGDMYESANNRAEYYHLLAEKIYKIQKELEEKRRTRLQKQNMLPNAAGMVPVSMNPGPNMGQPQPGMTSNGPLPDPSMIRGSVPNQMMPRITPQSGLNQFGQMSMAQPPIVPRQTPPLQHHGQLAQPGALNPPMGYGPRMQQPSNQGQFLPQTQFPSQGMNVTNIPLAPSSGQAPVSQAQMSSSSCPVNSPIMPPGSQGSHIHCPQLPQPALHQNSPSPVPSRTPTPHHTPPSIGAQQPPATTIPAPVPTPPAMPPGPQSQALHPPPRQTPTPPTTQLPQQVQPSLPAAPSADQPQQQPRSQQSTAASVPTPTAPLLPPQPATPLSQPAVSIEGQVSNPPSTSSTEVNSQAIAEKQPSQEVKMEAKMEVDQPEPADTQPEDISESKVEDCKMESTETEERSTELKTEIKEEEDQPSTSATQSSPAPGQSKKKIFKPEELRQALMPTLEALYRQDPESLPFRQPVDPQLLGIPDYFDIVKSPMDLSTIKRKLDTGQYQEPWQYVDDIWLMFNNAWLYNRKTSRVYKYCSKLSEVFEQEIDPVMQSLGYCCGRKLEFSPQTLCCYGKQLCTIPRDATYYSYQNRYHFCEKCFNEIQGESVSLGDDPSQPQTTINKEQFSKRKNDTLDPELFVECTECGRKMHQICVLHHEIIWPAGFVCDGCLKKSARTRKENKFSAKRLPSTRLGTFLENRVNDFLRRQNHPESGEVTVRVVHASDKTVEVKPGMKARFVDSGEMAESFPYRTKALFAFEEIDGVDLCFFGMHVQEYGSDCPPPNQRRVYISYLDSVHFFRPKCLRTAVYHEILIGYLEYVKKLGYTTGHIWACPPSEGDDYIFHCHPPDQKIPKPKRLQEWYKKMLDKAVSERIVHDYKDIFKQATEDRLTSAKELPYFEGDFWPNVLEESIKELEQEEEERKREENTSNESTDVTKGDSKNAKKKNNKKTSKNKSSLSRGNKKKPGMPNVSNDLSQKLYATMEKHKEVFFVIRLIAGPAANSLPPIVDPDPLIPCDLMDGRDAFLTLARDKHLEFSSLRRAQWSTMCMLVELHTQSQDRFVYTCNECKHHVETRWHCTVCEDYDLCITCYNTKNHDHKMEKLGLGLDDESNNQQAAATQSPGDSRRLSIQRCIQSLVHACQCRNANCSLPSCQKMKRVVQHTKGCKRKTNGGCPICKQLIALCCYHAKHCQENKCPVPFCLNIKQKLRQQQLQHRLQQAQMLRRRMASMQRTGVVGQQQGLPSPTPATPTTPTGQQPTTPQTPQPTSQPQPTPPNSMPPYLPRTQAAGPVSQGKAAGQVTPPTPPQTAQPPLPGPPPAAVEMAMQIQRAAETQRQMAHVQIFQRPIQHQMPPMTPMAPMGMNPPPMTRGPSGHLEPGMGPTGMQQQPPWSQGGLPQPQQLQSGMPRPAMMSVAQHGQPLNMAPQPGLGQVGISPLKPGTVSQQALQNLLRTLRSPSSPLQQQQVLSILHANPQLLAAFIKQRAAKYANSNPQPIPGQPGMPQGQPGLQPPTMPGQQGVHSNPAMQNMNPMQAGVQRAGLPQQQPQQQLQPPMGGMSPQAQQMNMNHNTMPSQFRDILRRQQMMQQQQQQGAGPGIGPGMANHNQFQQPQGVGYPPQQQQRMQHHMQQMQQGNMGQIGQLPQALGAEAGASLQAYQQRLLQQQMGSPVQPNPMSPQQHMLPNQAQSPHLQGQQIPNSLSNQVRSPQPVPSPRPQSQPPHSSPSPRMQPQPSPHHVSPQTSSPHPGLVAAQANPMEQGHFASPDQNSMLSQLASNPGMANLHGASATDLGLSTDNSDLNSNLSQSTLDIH

As usually defined, the stoichiometry N is the number of molecules, sites or subunits per partner or assembly. Turning to B1, the binding result in assay [1] is reported as “binds”. Also, in assay [2], the “stoichiometry N” value was 0.5 SRC3 per PR-A.

B2: progesterone receptor isoform B (PR-B), full-length, Strep II tagged (natural protein)
chain: MTELKAKGPRAPHVAGGPPSPEVGSPLLCRPAAGPFPGSQTSDTLPEVSAIPISLDGLLFPRPCQGQDPSDEKTQDQQSLSDVEGAYSRAEATRGAGGSSSSPPEKDSGLLDSVLDTLLAPSGPGQSQPSPPACEVTSSWCLFGPELPEDPPAAPATQRVLSPLMSRSGCKVGDSSGTAAAHKVLPRGLSPARQLLLPASESPHWSGAPVKPSPQAAAVEVEEEDGSESEESAGPLLKGKPRALGGAAAGGGAAAVPPGAAAGGVALVPKEDSRFSAPRVALVEQDAPMAPGRSPLATTVMDFIHVPILPLNHALLAARTRQLLEDESYDGGAGAASAFAPPRSSPCASSTPVAVGDFPDCAYPPDAEPKDDAYPLYSDFQPPALKIKEEEEGAEASARSPRSYLVAGANPAAFPDFPLGPPPPLPPRATPSRPGEAAVTAAPASASVSSASSSGSTLECILYKAEGAPPQQGPFAPPPCKAPGASGCLLPRDGLPSTSASAAAAGAAPALYPALGLNGLPQLGYQAAVLKEGLPQVYPPYLNYLRPDSEASQSPQYSFESLPQKICLICGDEASGCHYGVLTCGSCKVFFKRAMEGQHNYLCAGRNDCIVDKIRRKNCPACRLRKCCQAGMVLGGRKFKKFNKVRVVRALDAVALPQPVGVPNESQALSQRFTFSPGQDIQLIPPLINLLMSIEPDVIYAGHDNTKPDTSSSLLTSLNQLGERQLLSVVKWSKSLPGFRNLHIDDQITLIQYSWMSLMVFGLGWRSYKHVSGQMLYFAPDLILNEQRMKESSFYSLCLTMWQIPQEFVKLQVSQEEFLCMKVLLLLNTIPLEGLRSQTQFEEMRSSYIRELIKAIGLRQKGVVSSSQRFYQLTKLLDNLHDLVKQLHLYCLNTFIQSRALSVEFPEMMSEVIAAQLPKILAGMVKPLLFHKK
For the molecule B2, the binding result in assay [3] and in assay [4] was “binds” each time.

On to B3, for which the binding result in assay [3] and in assay [4] was “binds” each time.
